Reference: article PMC5739758, “Human oncoprotein Musashi-2 N-terminal RNA recognition motif backbone assignment and identification of RNA-binding pocket”

How the values were obtained:
MSI2-RRM1 [1] = molecular target: T1, MSI2-RRM1 (human, UniProt Q96DH6 21-111); experiment: NMR; 1H-15N HSQC titration, 1:1, slow exchange; TR-FRET at room temperature (FP per earlier publication; binding buffers not given; protein stored in 50 mM Tris-HCl pH 8.0, 500 mM NaCl); NMR 20 mM MES pH 6.0, 150 mM NaCl, 5% D2O, 298 K; conditions: protein: recombinant; tags: N-terminal His6 + TEV site (residues -3 to 20)
MSI2-RRM1 [2] = molecular target: T1, MSI2-RRM1; experiment: TR-FRET; 2 nM RNA; no detectable binding in nM range; TR-FRET at room temperature (FP per earlier publication; binding buffers not given; protein stored in 50 mM Tris-HCl pH 8.0, 500 mM NaCl); NMR 20 mM MES pH 6.0, 150 mM NaCl, 5% D2O, 298 K; conditions: protein: recombinant; tags: N-terminal His6 + TEV site (residues -3 to 20); label: 3' biotin
MSI2-RRM1 [3] = molecular target: T1, MSI2-RRM1; experiment: TR-FRET; 2 nM RNA; TR-FRET at room temperature (FP per earlier publication; binding buffers not given; protein stored in 50 mM Tris-HCl pH 8.0, 500 mM NaCl); NMR 20 mM MES pH 6.0, 150 mM NaCl, 5% D2O, 298 K; conditions: protein: recombinant; tags: N-terminal His6 + TEV site (residues -3 to 20); label: 3' biotin

T1 sequence (Q96DH6 21-111): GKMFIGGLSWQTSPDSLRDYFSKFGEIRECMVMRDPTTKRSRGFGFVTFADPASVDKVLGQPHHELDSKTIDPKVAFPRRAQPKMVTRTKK

## GUAGU (ssRNA) [Numb5]
MSI2-RRM1 [1]
  binding result: binds

## UAGCAUCAUCAUUUA (ssRNA) [Numb-mutBiotin]
MSI2-RRM1 [2]
  binding result: no binding

## UAGGUAGUAGUUUUA (ssRNA) [NumbBiotin]
MSI2-RRM1 [3]
  Kd: 2.07 nM
